We go through 1 substance from US6436901B1, “Pharmaceutical compositions” (UCP Gen-Pharma AG, priority 1994, dated 2002).

The data set is described as follows: RP-HPLC of hirudin in water (FIG. 1). The format is physicochemical. On the procedure: RP-HPLC method: A LiChroCART 125-4 column is used (Merck LiChrospher 100 RP-18 5 μm). Solvent A is 0.5% ammoniumacetate in acetonitrile/water (10:90), (v:v); solvent B is 0.5% ammoniumacetate in acetonitrile/water (25:75). The elution is performed at 45° C. using a flow rate of 0.5 ml/min. The binary elution is a linear gradient starting at time zero with 23% solvent B and reaching 46% solvent B after 24 minutes. After 2 min at 70% solvent B the column is equilibrated for 7 min at 23% solvent B.
A typical chromatogram of recombinant hirudin HV1 (CGP 39393) in water using the RP-HPLC (1 mg/ml hirudin) method is shown in FIG. 1.
In FIG. 1 the relative area of the main peak is 95.15%. […] The changes which occur can be accelerated by using temperature stress experiments i.e. by storage at elevated temperatures.

In the case of hirudin, the “relative area of the main peak” value (in water, 1 mg/ml hirudin, typical chromatogram FIG. 1, no storage stress) was found to be 95.15%. Further, the “stability on storage in water” value (storage in water at room temperature) is listed as “increase of by products with time”.
